The text below walks through data of patent US20230250176A1.

Broadly, the Kd is the equilibrium constant for the complex coming apart.

The target in test [1] is purified recombinant human FcγRI (human) (UniProt P12314). The experiment in a line: SPR (Biacore 8K), 25 C. A general note: Surface plasmon resonance follows binding to a sensor surface in real time, without labels.
Test [2] has as its target purified recombinant human FcγRIIa H131 (human) (UniProt P12318). The experiment in a line: SPR (Biacore 8K), 25 C.

Chain of purified recombinant human FcγRIIa H131 (human) (P12318 36-218 limits assumed): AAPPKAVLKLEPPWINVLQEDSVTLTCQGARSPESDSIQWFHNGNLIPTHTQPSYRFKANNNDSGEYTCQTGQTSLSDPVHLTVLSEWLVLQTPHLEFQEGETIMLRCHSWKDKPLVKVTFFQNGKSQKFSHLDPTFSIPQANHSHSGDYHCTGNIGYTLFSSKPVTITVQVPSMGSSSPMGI

Regarding cetuximab (antibody), the Kd in test [1] is 7.3 nM.

On to panitumumab (antibody), for which the Kd in test [2] was 1100 nM.
